Non-standard residues stand in square brackets, D forms with d. No end group written: not given here. *: point of attachment. Nal = naphthylalanine (isomer not specified); Dansyl = CN(C)c1cccc2c(S(=O)(=O)*)cccc12; Aib = CC(C)(N)C(=O)O
T1: lecithin:cholesterol acyltransferase (LCAT), purified from human plasma (human, UniProt P04180 25-440)
T1 sequence (looked up): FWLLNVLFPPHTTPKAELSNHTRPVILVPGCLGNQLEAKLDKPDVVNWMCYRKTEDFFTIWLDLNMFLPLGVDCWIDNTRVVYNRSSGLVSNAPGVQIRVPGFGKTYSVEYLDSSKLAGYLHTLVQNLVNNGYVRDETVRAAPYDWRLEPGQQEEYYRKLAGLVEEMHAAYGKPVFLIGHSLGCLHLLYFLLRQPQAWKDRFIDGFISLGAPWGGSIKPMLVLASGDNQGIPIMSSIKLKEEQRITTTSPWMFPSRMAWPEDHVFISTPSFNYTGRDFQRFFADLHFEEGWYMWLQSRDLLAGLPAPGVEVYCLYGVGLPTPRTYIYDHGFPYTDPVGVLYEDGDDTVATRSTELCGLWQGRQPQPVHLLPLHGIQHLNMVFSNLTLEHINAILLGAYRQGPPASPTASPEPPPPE


target: T1, lecithin:cholesterol acyltransferase …; assay: cell-based or functional assay

| ACTIVITY (%) LCAT | Binder |
| --- | --- |
| 22% | XXLDLFRELLNELLEALKQKLK (D-Pro (p) at 1, D-Val (v) at 2) [peptide 48] |
| 25% | PVLDEFREKLNE[Aib]WEALKQKLK [peptide 42] |
| 16% | PVLDLFRELLNELLEALKQ [peptide 60] |
| 19% | VVLDLFRELLNELLEALKQKLK [peptide 53] |
| 23% | PVLDLFREKLNE[Aib]LEALKQKLK [peptide 46] |
| 25% | PVLDLFNELLRELLEALQKKLK [peptide 40] |
| 21% | PVLDLFRELLWE[Aib]LEALKQKLK [peptide 50] |
| 4% | DWLKAFYDKVFEKFKEFF [peptide 245] |
| 22% | PVLDLFRNLLEKLLEALEQKLK [peptide 49] |
| 4% | EWLEAFYKKVLEKLKELF [peptide 246] |
| 23% | VLDLFRELLNEGLEALKQKLK [peptide 47] |
| 25% | PVLDLWRELLNE[Aib]LEALKQKLK [peptide 41] |
| 19% | PVLDLFRELLNEWLEALKQKLK [peptide 54] |
| 25% | PVLDEFREKLWE[Aib]LEALKQKLK [peptide 43] |
| 3% | DWFKAFYDKFFEKFKEFF [peptide 247] |
| 20% | PVLDLFWELLNE[Aib]LEALKQKLK [peptide 51] |
| 18% | PVLDLFRELLNELLEALKQKKK [peptide 56] |
| 20% | PVWDEFREKLNE[Aib]LEALKQKLK [peptide 52] |
| 18% | PVLDLFRNLLEELLKALEQKLK [peptide 57] |
| 19% | PLFRELLNELLEALKQKLK [peptide 55] |
| 18% | PVLDEFREKLNE[Aib]LEALKQKL [peptide 58] |
| 25% | [dP][dV][dL][dD][dE][dF][dR][dE][dK][dL][dN][dE][Aib][dL][dE][dA][dL][dK][dQ][dK][dL][dK] [peptide 44] |
| 24% | PVLDEFREKLNE[Aib]LEALKQKLK [peptide 45] |
| 17% | LVLDLFRELLNELLEALKQKLK [peptide 59] |

More lines, now with the values behind:

| Binder | ACTIVITY (%) LCAT |
| --- | --- |
| Dansyl-PVLDLFRELLNELLEALKQKLK [peptide 30] | 38% |
| AVLDLFRELLNELLEALKQKLK [peptide 29] | 39% |
| XVLDLFRELLNELLEALKQKLKK (D-Pro (p) at 1) [peptide 5] | 90% |
| PVLDLFRELLEELLKALKKKLK [peptide 39] | 25% |
| PVLDLFLELLNE[Aib]LEALKQKLK [peptide 31] | 34% |
| PVLDLFRELLNELLEGLKQKLK [peptide 22] | 54% |
| PVLDLFRELLNELWEALKQKLK [peptide 28] | 40% |
| PVLDLFRELLNELLELLKQKLK [peptide 26] | 47% |
| PVLD[Nal]FRELLNELLEALKQKLK (not fully specified) [peptide 34] | 32% |
| PVLDLFRELLNEL[Nal]EALKQKLK (not fully specified) [peptide 27] | 44% |
| PLLELLKELLQELLEALKQKLK [peptide 36] | 31% |
| PVLDLFRELLNELLEALQKKLK [peptide 24] | 53% |
| PVLDLFRELLNE[Aib]LEAWKQKLK [peptide 38] | 29% |
| PVLDFFRELLNE[Aib]LEALKQKLK [peptide 25] | 51% |
| PVLDLFRELLNELLEWLKQKLK [peptide 3] | 98% |
| PVLDLFREWLNELLEALKQKLK [peptide 37] | 29% |
| [Aib]VLDLFRELLNELLEALKQKLK [peptide 32] | 33% |
| PVLDLFRELLNE[Aib]LEALKQKLK [peptide 6] | 80% |
| PVLDLFREKLNELLEALKQKLK [peptide 33] | 33% |
| PVLDWFRELLNELLEALKQKLK [peptide 35] | 31% |
| PLLELFKELLQELLEALKQKLK [peptide 23] | 54% |
| PVLDLFRELLNELLEALKQKLK [peptide 4] | 93% |

Source: patent publication US20050080013A1 (Pfizer, published 2005)
